From article PMC3779078 (Molecular reproduction and development, 2009)

What was measured:
Experiment in all cases: PAGE under mildly denaturing conditions with Western blot
[1] = target: Izumo 1 N-terminal domain (N), recombinant (mouse)
[2] = target: Izumo domain of Izumo 3, recombinant (mouse)
[3] = target: the molecule itself

Question: “Izumo 1 N-terminal domain (N), recombinant (domain or fragment)” was tested. Which stoichiometry N [1] did it give?
Answer: 2

Question: How did the stoichiometry N [2] turn out when “Izumo domain of Izumo 3, recombinant (domain or fragment)” was run?
Answer: 2

B1: Izumo 1 entire extracellular domain (N-Ig), recombinant (domain or fragment, mouse, UniProt Q9D9J7 22-319, looked up)
chain: CIKCDQFVTDALKTFENTYLNDHLPHDIHKNVMRMVNHEVSSFGVVTSAEDSYLGAVDENTLEQATWSFLKDLKRITDSDLKGELFIKELLWMLRHQKDIFNNLARQFQKEVLCPNKCGVMSQTLIWCLKCEKQLHICRKSLDCGERHIEVHRSEDLVLDCLLSWHRASKGLTDYSFYRVWENSSETLIAKGKEPYLTKSMVGPEDAGNYRCVLDTINQGHATVIRYDVTVLPPKHSEENQPPNIITQEEHETPVHVTPQTPPGQEPESELYPELHPELYPELIPTVAQNPEKKMKTR
Question: For B1, which “stoichiometry N” value [3] is on record?
Answer: 2
